Key:
Settings in all cases: protein: recombinant; tags: N-terminal 6xHis; label: 32P at 5' end of D25 primer; 25 bp duplex, 5' overhang 20 nt on D45 (recessed primer 3' end)
Mip1Δ279 = molecular target: T1, Mip1Δ279 (Saccharomyces cerevisiae, UniProt P15801 30-975, del976-1254); experiment: EMSA; faint shifted band, complex possibly retained in well (aggregation); not quantified; EMSA: 1 nM substrate, 0.2-12.5 nM polymerase, 20 mM Tris-HCl pH 8.0, 40 mM KCl, 10% glycerol, 0.1 mg/ml BSA, 2 mM DTT, 2 min at 0°C; native 8% Tris-glycine gel
T1 sequence: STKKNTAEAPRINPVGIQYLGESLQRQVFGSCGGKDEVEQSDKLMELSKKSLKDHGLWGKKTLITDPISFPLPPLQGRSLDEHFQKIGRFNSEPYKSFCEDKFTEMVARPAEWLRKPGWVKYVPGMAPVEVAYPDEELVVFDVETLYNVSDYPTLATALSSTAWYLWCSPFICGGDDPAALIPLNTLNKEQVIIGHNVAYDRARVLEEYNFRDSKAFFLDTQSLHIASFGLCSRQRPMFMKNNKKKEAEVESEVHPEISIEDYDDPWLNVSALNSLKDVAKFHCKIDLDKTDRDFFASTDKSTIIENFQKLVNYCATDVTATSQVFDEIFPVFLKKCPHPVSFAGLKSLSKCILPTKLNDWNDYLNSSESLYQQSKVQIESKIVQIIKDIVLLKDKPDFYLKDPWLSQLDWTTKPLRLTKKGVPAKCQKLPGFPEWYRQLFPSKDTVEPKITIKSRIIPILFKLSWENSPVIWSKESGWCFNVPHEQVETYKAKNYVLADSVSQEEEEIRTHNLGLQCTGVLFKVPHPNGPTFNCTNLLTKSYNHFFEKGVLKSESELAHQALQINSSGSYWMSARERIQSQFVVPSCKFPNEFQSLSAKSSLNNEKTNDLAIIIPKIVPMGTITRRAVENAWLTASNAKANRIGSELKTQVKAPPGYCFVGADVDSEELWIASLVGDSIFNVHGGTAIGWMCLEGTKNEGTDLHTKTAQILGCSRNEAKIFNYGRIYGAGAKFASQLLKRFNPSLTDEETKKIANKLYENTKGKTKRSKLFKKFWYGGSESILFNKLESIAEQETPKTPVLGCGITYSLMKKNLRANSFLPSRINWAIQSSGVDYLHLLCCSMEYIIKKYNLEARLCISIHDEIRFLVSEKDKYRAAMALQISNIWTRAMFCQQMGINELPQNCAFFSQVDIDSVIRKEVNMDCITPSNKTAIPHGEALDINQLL

[1] = molecular target: T2, FL-Mip1 (mitochondrial DNA polymerase gamma) (Saccharomyces cerevisiae, UniProt P15801 30-1254); experiment: EMSA; no Mg2+ or dNTP in binding mix; EMSA: 1 nM substrate, 0.2-12.5 nM polymerase, 20 mM Tris-HCl pH 8.0, 40 mM KCl, 10% glycerol, 0.1 mg/ml BSA, 2 mM DTT, 2 min at 0°C; native 8% Tris-glycine gel
T2 sequence: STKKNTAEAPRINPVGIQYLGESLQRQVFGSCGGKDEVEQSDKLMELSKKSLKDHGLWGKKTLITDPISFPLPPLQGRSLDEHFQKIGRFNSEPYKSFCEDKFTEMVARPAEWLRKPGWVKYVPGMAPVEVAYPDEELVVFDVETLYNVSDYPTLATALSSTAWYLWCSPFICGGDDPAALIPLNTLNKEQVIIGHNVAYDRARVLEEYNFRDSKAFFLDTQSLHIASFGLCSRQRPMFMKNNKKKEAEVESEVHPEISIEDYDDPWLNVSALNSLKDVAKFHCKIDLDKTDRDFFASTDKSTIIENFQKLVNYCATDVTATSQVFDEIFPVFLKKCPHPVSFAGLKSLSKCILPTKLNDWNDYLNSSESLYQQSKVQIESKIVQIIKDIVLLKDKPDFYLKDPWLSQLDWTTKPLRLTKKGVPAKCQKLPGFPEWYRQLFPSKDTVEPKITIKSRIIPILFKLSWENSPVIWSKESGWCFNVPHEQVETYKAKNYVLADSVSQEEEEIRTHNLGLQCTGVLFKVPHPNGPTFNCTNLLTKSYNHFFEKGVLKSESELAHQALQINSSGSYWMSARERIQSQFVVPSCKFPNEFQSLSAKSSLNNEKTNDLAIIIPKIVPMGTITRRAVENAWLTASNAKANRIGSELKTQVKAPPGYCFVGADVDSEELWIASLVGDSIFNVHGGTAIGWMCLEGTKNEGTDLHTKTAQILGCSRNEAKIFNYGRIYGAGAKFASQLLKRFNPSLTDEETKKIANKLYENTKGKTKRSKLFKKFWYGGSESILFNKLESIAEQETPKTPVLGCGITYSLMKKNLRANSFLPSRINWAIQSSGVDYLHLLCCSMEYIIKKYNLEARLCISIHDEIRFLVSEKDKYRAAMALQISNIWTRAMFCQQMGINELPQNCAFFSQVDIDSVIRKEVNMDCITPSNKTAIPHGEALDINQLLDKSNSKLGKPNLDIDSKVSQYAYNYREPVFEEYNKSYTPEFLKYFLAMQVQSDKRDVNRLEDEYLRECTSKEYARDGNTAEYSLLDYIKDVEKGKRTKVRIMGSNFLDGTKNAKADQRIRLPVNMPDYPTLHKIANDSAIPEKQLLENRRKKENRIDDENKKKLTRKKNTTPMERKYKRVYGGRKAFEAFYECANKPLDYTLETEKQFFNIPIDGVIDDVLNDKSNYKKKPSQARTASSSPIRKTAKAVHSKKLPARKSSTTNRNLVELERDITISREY

Mip1Δ175 = molecular target: T3, Mip1Δ175 (Saccharomyces cerevisiae, UniProt P15801 30-1079, del1080-1254); experiment: as above
T3 sequence: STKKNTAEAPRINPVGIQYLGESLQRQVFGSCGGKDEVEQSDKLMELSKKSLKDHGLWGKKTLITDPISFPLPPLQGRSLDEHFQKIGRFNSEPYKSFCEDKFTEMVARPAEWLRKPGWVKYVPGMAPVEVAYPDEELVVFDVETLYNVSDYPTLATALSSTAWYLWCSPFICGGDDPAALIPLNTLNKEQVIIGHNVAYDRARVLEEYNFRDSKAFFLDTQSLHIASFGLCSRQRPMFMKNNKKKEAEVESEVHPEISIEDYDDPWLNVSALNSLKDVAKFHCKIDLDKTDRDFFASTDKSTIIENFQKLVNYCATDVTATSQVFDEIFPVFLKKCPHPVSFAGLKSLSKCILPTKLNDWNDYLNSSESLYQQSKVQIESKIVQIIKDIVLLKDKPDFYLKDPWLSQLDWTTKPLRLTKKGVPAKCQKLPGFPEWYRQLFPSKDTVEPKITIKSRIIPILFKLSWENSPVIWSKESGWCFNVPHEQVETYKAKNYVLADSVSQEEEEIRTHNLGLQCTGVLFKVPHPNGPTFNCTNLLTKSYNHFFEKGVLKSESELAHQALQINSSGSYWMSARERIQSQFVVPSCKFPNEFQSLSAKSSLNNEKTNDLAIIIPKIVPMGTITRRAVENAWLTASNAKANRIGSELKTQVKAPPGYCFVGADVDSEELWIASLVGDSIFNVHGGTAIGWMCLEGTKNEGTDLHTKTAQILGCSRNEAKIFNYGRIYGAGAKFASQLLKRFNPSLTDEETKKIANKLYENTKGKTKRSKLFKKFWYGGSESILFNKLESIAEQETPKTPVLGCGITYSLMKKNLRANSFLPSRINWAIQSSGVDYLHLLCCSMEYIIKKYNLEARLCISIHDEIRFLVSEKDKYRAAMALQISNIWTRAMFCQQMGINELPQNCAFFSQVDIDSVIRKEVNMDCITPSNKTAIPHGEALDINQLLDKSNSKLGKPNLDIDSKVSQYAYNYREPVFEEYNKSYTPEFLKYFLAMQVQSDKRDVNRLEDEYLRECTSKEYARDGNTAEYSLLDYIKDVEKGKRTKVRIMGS

Mip1Δ216 = molecular target: T4, Mip1Δ216 (Saccharomyces cerevisiae, UniProt P15801 30-1038, del1039-1254); experiment: as above
T4 sequence: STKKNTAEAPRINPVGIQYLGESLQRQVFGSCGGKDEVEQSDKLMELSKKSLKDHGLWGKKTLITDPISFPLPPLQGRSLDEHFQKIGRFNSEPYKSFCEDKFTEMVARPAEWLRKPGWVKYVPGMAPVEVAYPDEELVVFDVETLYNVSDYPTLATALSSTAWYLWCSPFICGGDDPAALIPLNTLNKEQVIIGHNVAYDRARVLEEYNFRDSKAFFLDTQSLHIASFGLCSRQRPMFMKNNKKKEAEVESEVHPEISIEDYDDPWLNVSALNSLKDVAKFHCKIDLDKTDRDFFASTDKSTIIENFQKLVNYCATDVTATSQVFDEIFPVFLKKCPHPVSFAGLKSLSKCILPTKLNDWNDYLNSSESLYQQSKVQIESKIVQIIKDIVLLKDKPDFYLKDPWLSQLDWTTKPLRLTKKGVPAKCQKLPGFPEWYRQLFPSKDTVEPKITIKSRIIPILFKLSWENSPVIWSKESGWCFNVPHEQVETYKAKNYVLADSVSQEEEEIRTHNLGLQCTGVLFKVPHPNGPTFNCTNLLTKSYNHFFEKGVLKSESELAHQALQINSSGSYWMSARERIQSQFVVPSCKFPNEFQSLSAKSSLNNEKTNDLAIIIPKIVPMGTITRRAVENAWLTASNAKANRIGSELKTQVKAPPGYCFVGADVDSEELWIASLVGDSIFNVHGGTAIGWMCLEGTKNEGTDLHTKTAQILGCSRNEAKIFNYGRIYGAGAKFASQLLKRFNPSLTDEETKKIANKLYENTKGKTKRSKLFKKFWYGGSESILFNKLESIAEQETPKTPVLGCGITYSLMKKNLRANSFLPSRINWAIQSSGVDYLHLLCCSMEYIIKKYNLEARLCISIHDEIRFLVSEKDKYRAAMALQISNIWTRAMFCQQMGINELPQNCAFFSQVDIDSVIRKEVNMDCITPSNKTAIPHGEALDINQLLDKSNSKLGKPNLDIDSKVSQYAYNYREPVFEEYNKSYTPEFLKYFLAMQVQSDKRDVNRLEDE

B1: 45/25 primer-template (D45/D25) (dsDNA)
DNA 1: GGACGGCATTGGATCGAGGTTGAGTTGGTTGGACGGCTGCGAGGC
DNA 2: GCCTCGCAGCCGTCCAACCAACTCA
binding result (Mip1Δ279): binds
Kd [1]: 4.3 ± 0.68 nM
Kd (Mip1Δ175): 2.2 ± 0.75 nM
Kd (Mip1Δ216): 0.95 ± 0.18 nM

Reference: article PMC3303844, “C-Terminal Extension of the Yeast Mitochondrial DNA Polymerase Determines the Balance between Synthesis and Degradation”
